Results taken from patent US20240287501A1 (VIB VZW, published 2024).

Legend:
[1] = biological target: T1, GFP-tagged SBA1 (Saccharomyces cerevisiae, UniProt P28707 2-216); experiment: co-immunoprecipitation, Nb coupled to NHS-agarose beads, lysate of the yeast strain expressing the GFP-tagged target, Western blot anti-GFP
T1 construct: Yeast GFP Fusion Collection strain; also called Yeast GFP fusion collection GFP(+)30, A6; YKL117W; not shown: GFP tag
T1 sequence (looked up): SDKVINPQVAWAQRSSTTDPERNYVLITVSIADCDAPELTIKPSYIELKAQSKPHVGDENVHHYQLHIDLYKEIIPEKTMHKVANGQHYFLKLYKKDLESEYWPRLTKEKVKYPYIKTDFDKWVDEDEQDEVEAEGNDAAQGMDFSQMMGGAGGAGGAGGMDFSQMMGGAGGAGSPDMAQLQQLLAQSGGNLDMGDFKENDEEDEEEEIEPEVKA
Text: (§1) One HSP104-specific Nanobody (04=CA18504 SEQ ID NO:40), one MET6-specific Nanobody (05=CA18505 SEQ ID NO:41), two SBA1-specific Nanobodies (08=Nb clone CA18508 corresponding to SEQ ID NO:42, 09=CA18509-SEQ ID NO:43), one SOD1-specific Nanobody (10=CA18510-SEQ ID NO:44), and a ENO1-specific Nanobody (38=CA17938-SEQ ID NO:45), were characterized by co-immunoprecipitation assays. Each POI-specific Nanobodies was covalently linked to NHS-agarose beads. The beads that were functionalized with these POI-specific Nanobodies were incubated for an hour at 4° C. on a rotating device with the lysate of the engineered Yeast strain expressing the POIs (Yeast GFP fusion collection reference: GFP(+)05, A2 (HSP104); GFP(+)07, D4 (MET6); GFP(+)30, A6 (SBA1); GFP(+)33, F8 (SOD1) and GFP(+)17, D12 (ENO1) as a GFP-tagged protein. After washing, these beads were analyzed on SDS-PAGE (not shown) and Western blot was developed with GFP-specific antibody to confirm the presence of GFP-tagged POIs.

[2] = biological target: T2, GFP-tagged SSA1 (Saccharomyces cerevisiae, UniProt P10591 2-642); experiment: co-immunoprecipitation, Nb coupled to NHS-agarose beads, lysate of the yeast strain expressing the GFP-tagged target, SDS-PAGE
T2 construct: Yeast GFP Fusion Collection strain; also called Yeast GFP fusion collection GFP(+)10, E4; not shown: GFP tag
T2 sequence (P10591 2-642): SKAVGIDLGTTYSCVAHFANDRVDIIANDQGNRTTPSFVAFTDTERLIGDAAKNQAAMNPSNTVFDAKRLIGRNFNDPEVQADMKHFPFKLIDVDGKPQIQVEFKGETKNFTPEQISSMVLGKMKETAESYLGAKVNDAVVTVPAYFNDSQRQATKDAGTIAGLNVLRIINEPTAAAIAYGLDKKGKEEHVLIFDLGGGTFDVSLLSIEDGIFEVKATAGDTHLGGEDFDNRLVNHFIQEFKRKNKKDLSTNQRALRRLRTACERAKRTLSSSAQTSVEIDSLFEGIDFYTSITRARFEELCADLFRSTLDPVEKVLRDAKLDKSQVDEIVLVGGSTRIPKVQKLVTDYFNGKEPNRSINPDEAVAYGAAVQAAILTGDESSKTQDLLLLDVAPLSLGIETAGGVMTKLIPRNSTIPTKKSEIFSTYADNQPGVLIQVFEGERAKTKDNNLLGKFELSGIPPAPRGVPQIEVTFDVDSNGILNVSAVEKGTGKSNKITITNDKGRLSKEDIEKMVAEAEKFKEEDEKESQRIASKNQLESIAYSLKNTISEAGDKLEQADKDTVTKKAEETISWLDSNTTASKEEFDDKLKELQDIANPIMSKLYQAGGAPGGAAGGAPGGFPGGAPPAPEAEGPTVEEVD
Protocol: (§2) Six SSA1-specific Nanobodies (60=Nb clone CA17560 corresponding to SEQ ID NO: 19, 61=CA17561-SEQ ID NO: 20, 62=CA17562-SEQ ID NO: 21, 63=CA17563-SEQ ID NO: 22, 64=CA17564-SEQ ID NO: 23, 65=CA17565-SEQ ID NO: 24) were characterized by co-immunoprecipitation assays. Each SSA1-specific Nanobodies was covalently linked to NHS-agarose beads. The beads that were functionalized with these SSA1-specific Nanobodies were incubated for an hour at 4° C. on a rotating device with either an EBY100 lysate or the lysate of the engineered Yeast strain expressing SSA1 (Yeast GFP fusion collection reference: GFP(+)10, E4) as a GFP-tagged protein. After washing, these beads were resuspended in SDS-PAGE loading dye and analyzed on SDS-PAGE (FIG. 6A). Separated proteins were transferred to a PVDF membrane and the Western blot (FIG. 6B) was developed with GFP-specific antibody to confirm the presence of GFP-tagged SSA1.

[3] = biological target: T3, SSA1 (native, from EBY100 lysate) (Saccharomyces cerevisiae, UniProt P10591 2-642); experiment: co-immunoprecipitation, Nb coupled to NHS-agarose beads, EBY100 yeast lysate (native target), SDS-PAGE
T3 construct: mature; Endogenous untagged protein; also called YAL005C
T3 sequence (P10591 2-642): as above
Protocol: as §2

[4] = biological target: T4, GFP-tagged MET6 (Saccharomyces cerevisiae, UniProt P05694 2-767); experiment: co-immunoprecipitation, Nb coupled to NHS-agarose beads, lysate of the yeast strain expressing the GFP-tagged target, Western blot anti-GFP
T4 construct: Yeast GFP Fusion Collection strain; also called Yeast GFP fusion collection GFP(+)07, D4; YER091C; not shown: GFP tag
T4 sequence (looked up): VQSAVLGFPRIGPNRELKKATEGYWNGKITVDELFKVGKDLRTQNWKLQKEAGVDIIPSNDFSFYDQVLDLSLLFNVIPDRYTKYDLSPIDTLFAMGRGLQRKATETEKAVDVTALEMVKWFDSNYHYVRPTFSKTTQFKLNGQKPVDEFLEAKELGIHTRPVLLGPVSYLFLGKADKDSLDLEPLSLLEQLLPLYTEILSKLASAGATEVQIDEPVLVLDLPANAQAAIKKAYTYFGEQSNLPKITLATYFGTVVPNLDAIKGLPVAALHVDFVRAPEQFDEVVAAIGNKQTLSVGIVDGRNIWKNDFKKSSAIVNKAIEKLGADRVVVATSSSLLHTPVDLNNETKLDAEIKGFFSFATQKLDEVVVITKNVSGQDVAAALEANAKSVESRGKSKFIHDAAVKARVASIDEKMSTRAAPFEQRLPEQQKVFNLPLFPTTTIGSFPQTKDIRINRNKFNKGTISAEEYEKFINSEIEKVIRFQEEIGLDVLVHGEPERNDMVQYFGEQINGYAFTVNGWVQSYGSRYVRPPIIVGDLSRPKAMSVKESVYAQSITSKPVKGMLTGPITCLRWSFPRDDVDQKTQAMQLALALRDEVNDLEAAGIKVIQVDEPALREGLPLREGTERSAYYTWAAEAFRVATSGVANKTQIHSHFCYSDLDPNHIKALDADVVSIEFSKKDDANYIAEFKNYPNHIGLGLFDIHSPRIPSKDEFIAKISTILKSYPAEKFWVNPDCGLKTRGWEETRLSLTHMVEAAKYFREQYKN
Text: as §1

[5] = biological target: T5, GFP protein (Aequorea victoria (Water jellyfish) …, UniProt P42212 1-238 = GFP, biotinylated with the EZ-Link sulfo-NHS-LC-biotinylation kit for the BLI assay; unmodified in the NANEX selections); experiment: method not stated
T5 construct: Purified GFP; also called wild type GFP; biotinylated GFP

[6] = biological target: T6, GFP-tagged HSP104 (Saccharomyces cerevisiae, UniProt P31539 1-908); experiment: co-immunoprecipitation, Nb coupled to NHS-agarose beads, lysate of the yeast strain expressing the GFP-tagged target, Western blot anti-GFP
T6 construct: Yeast GFP Fusion Collection strain; also called Yeast GFP fusion collection GFP(+)05, A2; YLL026W; not shown: GFP tag
T6 sequence (P31539 whole entry, the tested form may be a part): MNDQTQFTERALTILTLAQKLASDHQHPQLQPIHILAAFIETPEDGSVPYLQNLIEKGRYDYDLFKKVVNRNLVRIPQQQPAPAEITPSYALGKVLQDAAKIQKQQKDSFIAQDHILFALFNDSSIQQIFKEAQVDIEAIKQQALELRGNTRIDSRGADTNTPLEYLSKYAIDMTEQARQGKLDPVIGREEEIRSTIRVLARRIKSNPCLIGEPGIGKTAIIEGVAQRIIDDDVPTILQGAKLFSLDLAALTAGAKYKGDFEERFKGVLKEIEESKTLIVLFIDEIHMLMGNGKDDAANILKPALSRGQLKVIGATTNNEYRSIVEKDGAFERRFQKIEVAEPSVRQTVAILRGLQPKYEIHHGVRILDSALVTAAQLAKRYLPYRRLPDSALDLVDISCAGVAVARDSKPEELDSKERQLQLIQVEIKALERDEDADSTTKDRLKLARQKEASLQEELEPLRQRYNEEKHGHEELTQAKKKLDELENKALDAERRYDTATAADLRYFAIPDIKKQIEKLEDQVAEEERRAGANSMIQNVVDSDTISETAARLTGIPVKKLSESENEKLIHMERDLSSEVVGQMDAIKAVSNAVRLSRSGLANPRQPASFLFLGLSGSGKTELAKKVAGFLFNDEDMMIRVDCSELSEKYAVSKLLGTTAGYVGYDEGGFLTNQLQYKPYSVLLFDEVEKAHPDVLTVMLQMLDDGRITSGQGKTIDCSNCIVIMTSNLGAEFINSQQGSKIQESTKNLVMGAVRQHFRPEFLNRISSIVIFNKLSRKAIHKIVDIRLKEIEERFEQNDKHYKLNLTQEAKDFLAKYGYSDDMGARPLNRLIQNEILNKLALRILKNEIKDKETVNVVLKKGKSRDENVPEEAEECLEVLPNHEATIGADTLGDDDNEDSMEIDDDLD
Text: as §1

[7] = biological target: T7, GFP-tagged ENO1 (Saccharomyces cerevisiae, UniProt P00924 2-437); experiment: as above
T7 construct: Yeast GFP Fusion Collection strain; also called Yeast GFP fusion collection GFP(+)17, D12; YGR254W; not shown: GFP tag
T7 sequence (P00924 2-437): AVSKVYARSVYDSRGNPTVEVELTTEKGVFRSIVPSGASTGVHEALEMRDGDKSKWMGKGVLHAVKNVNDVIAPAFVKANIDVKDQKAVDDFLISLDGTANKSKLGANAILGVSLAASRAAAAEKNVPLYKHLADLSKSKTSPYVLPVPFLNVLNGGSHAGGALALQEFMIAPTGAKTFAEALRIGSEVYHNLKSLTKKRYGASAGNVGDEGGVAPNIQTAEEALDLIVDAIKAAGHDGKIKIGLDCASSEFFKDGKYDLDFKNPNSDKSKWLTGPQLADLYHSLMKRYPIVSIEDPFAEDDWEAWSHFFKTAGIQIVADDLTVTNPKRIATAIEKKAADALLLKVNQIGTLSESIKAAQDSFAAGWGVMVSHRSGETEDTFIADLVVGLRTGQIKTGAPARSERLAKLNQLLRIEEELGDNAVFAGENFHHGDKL
Text: as §1

[8] = biological target: T8, BMH1 (native, from EBY100 lysate) (Saccharomyces cerevisiae, UniProt P29311 2-267); experiment: co-IP, Nb on NHS-agarose beads, EBY100 yeast lysate, SDS-PAGE
T8 construct: mature; Endogenous untagged protein; also called YER177W
T8 sequence (looked up): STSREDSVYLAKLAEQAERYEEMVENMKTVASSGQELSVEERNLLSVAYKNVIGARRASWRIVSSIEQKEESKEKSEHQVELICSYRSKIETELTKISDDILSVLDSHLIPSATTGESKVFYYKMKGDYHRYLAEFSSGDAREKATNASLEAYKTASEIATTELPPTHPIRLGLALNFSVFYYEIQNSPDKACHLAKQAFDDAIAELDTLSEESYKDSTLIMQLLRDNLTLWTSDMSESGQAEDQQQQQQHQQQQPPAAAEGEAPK

[9] = biological target: T9, GFP-tagged BMH1 (Saccharomyces cerevisiae, UniProt P29311 2-267); experiment: co-immunoprecipitation, Nb coupled to NHS-agarose beads, lysate of the yeast strain expressing the GFP-tagged target, Western blot anti-GFP
T9 construct: Yeast GFP Fusion Collection strain; also called Yeast GFP fusion collection GFP(+)27, D5; not shown: GFP tag
T9 sequence (looked up): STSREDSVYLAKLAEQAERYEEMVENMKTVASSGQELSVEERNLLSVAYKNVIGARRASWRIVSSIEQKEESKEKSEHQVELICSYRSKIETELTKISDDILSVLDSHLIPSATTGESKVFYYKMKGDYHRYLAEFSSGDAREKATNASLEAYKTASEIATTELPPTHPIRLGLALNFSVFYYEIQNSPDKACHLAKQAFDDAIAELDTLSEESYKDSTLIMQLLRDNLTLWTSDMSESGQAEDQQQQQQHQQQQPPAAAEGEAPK
Protocol: One SIS1-specific Nanobody (44=Nb clone CA17444 corresponding to SEQ ID NO: 9), three ALD6-specific Nanobodies (53=CA17453-SEQ ID NO: 10, 54=CA17454-SEQ ID NO: 11, 60=CA17460-SEQ ID NO: 12), two BMH1-specific Nanobodies (58=CA17458-SEQ ID NO: 13, 59=CA17459-SEQ ID NO: 14) were characterized by co-immunoprecipitation assays. Each target-specific Nanobodies was covalently linked to NHS-agarose beads. The beads that were functionalized with these target-specific Nanobodies were incubated for an hour at 4° C. on a rotating device with either an EBY100 lysate or the lysate of the engineered Yeast strain expressing the target (Yeast GFP fusion collection reference for SIS1: GFP(+)22, E5, for ALD6: GFP(+)15, F1, for BMH1: GFP(+)27, D5) as a GFP-tagged protein. After washing, these beads were resuspended in SDS-PAGE loading dye and analyzed on SDS-PAGE (FIG. 8A). Separated proteins were transferred to a PVDF membrane and the Western blot (FIG. 8B) was developed with GFP-specific antibody to confirm the presence of GFP-tagged targets.

[10] = biological target: T10, GFP-tagged SOD1 (Saccharomyces cerevisiae, UniProt P00445 2-154); experiment: as above
T10 construct: Yeast GFP Fusion Collection strain; also called Yeast GFP fusion collection GFP(+)33, F8; YJR104C; not shown: GFP tag
T10 sequence (looked up): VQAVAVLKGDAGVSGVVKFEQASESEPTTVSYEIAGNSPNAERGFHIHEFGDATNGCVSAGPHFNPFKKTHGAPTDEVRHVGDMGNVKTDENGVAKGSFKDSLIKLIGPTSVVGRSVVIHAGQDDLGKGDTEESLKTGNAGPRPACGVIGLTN
Text: as §1

B1: CA18508 (VHH)
VHH: QVQLVESGGGLVQPGGSLRLSCAASGFTFSNTAMSWYRQAPGKERELVAVSTSAGGGTDYADSVQGRFTISRDNAKNTVYLQMNDLKPEDTAVYYCYAVGRYRSSWRLLPFGSWGQGTQVTVSS
notes: C-terminal 6xHis-EPEA tag is part of the entry
binding result [1]: binds

B2: CA17560 (VHH)
VHH: QVQLVESGGGLVHSGGSLRLSCVASGGAFNDYTMGWFRQAPGKERQFVAAITWSSGVTSYSDSVRGRFVISRDIAKNTVYLQMNSLNPEETAVYVCAARLGVSSSPNSQISHRYDYWGQGTQVTVSS
notes: as for B1
binding result [2]: binds | binding result [3]: binds

B3: CA18505 (VHH)
VHH: QVQLVESGGGLVQPGGSLRLSCAASGSIFSINAWGWYRQAPGKERELVAVITSVGGRTNYADSVKGRFTISRDNAKDMVYLQMNSLKPEDTAVYYCNSRGSSWYFGTPQDYWGQGTQVTVSS
notes: as for B1
binding result [4]: binds

B4: CA15816 (VHH)
VHH: QVQLVESGGGLVQAGGSLRLSCAASGRTFSTAAMGWFRQAPGKERDFVAGIYWAAGSTYYADSAKGRFTISRDNAKNTVYLQMDSLKPEDTAVYYCAARRRGFTLAPTRANEYDYWGQGTQVTVSS
notes: C-terminal 6xHis-EPEA tag is part of the entry, which already carries T54A/V55A; also called GFP trapper; GFP-specific trapper
Kd [5]: 2.7 nM

B5: CA18509 (VHH)
VHH: QVQLVESGGGLVQPGGSLRLSCAAAGFTFRMLDMSWYRQAPGKERELVATITSVSGTTNYADSVKGRVTISRDNAKNTVYLQMNSLKPEDTAVYYCNARMAAWGLDYWGQGTQVTVSS
notes: as for B1
binding result [1]: binds

B6: CA18504 (VHH)
VHH: QVQLVESGGGLVQPGGSLTLSCAGSGRAFDSIAMGWFRQAPGKEREFVAAISWNGVSAYYADSVKGRFTISRDNAKNTVHLQMNSLQSDDTAVYYCHADNSWGQGTQVTVSS
notes: as for B1
binding result [6]: binds

B7: CA17938 (VHH)
VHH: QVQLVESGGGLVQPGGSLRLSCAASGFTLDTWAIGWFRQVPGKDREGAACISSEPSSTYYGEFVNGRFTISRDSAKSTVYLQMNDLKPEDTAVYYCSADRLSAYCSGSGGWGQGTQVTVSS
notes: as for B1
binding result [7]: binds

B8: CA17458 (VHH)
VHH: QVQLVESGGGLVQPGGSLRLSCAASGTTLSLRRVGWYRQAPGKQRDLVATLTSGGETSYADSVKGRFTISRDNAKNTVYLQMNSLKLEDTAVYYCNAINWPMDYWGQGTQVTVSS
notes: as for B1
binding result [8]: binds | binding result [9]: binds

B9: CA18510 (VHH)
VHH: QVQLVESGGGLVEAGGSLRLSCAASGRTFSSYAMGWFRQAPGKEREFVAAISWSGGSTYYADSVKGRFTISRDNAKNTVYLQMNSLKPEDTAVYYCAAPTAYHYSTTRDEYDSWGQGTQVTVSS
notes: as for B1
binding result [10]: binds
